Source: patent US6801029B2, “Microwave dielectric spectroscopy method and apparatus” (Wisconsin Alumni Research Foundation, priority 2001, dated 2004)

Columns and labels:
[1] = Thermal unfolding of RNase A by microwave dielectric spectroscopy (slot antenna s11 log mag, Lorentzian peak positions fitted to 2-state model); type: physicochemical
Source text: A coaxial-fed slot antenna 25 was manufactured from RO-4002 (Rogers Corporation, Rogers, Conn.) on a LPKF ProtoMat using BoardMaster 3.0 (LPKF Laser & Electronics AG, Germany). The coaxial feed was composed of semi-rigid PE-047SR (Pasternack Enterprises, Irvine, Calif.). The dimensions of the antenna were chosen to yield a resonant frequency of approximately 3 GHz. This frequency was selected to optimize the interaction of microwave radiation with “bound water,” assumed to undergo dispersion at lower frequencies than bulk solution. The active range of the antenna extends from approximately 500 MHz to 6.5 GHz. The antenna was attached to a 0.5 cm Suprasil fused quartz UV/VIS cuvette 21 (Hellma GmbH & Co., Germany).
Microwave measurements were made utilizing as the analyzer 37 a Hewlett-Packard 8720D vector network analyzer (VNA) (Agilent Technologies, Palo Alto, Calif.) set to measure s11. The lowest power range −15 to +5 dBm was used for all experiments. The slot antenna 25 was attached to the VNA 37 using a standard 50 Ω coaxial cable 35. UV/VIS absorption measurements were performed using a Hewlett-Packard 8452A diode-array spectrophotometer with a water-thermostatted cell holder (Agilent Technologies, Palo Alto, Calif.), functioning as the optical spectrometer 28 with detector 32. Both instruments were controlled using LabView (National Instruments Corporation, Austin, Tex.) via a GPIB connection.
Data analysis was performed in one of two ways: 1) Center frequency was determined by fitting spectra at each change of temperature or other environmental conditions to a number of Lorentzian peaks; or 2) Peak amplitude was determined for spectra at each change of temperature or other environmental condition. Commercial software such as Microcal Origin was used for both types of fitting. Data, either center frequency or amplitude, could be then plotted as a function of environmental condition and subjected to further analysis. For thermal unfolding experiments, peak center frequency determination yielded better results, perhaps because many peaks overlap. Peak amplitude determination was more successful for hormone binding experiments, probably because peaks were well-spaced and non-overlapping.
(§1) Bovine pancreatic ribonuclease A (RNase A) was purchased from Sigma (St. Louis, Mo.) and used without further purification. All other reagents were purchased from Fisher Scientific (Pittsburgh, Pa.). Lyophilized protein was dissolved in a solution of 30 mM sodium acetate/acetic acid, 100 mM sodium chloride, pH 4.5, then dialyzed exhaustively before use. Protein concentrations were determined by UV-VIS spectroscopy. The extinction coefficient was taken as 0.72 mg^−1mL cm^−1 at 278 nm. Concentrations of RNase A varied from 0.2 to 1 mg/mL (14.6 to 73.0 μM). The environmental condition of the sample that was changed was temperature. RNase A was unfolded reversibly by increasing the temperature of the sample at a maximum rate of 0.4° C./min. The unfolding reaction was monitored using UV/VIS absorbance at 288 nm.
As with buffer alone, peak positions shift with temperature, and most peaks broaden with increasing temperature.
Spectra were fitted to eight Lorentzian peaks. […] Four peaks, identified in Table 1 below, responded in a sigmoidal fashion characteristic of cooperative unfolding; the remaining peaks increased or decreased monotonically with temperature.

[2] = Thermal unfolding of RNase A monitored by UV/VIS absorbance at 288 nm, two-state model; type: physicochemical
Method: as §1
The unfolding of RNase A may be observed using UV/VIS absorbance. At low protein concentrations, the absorbance of RNase A follows Beer's Law:
where A(λ) is the absorbance, ε(λ,T) is the extinction coefficient, c is the protein concentration, and l is the path length. For selected proteins, the extinction coefficient ε depends not only on the wavelength λ and the temperature T, but also on the protein conformation. Such a dependence of ε on conformation is called a hyperchromic shift. For RNase A, the maximal hyperchromic shift occurs at approximately 288 nm.
Here, N refers to native protein, U refers to unfolded protein, Tm is the midpoint temperature (at which FN=FU=0.5 and ΔG=0 kcal/mol), ΔHm is the enthalpy at the midpoint temperature, α is the observed signal (in this case, UV/VIS absorbance), and αN and αU are the observed signals for native and unfolded protein, respectively. Since the unfolding of RNase A is a unimolecular reaction, thermodynamic parameters such as enthalpy, free energy, and mid-point temperature are independent of concentration. […] Analysis of unfolding of RNase A yields an average Tm of 58.2° C. and an average ΔHm of 74.9 kcal/mol.
Other researchers have implied that the presence of microwave radiation destabilizes protein, and may enhance rates of folding and unfolding. […] The differences in Tm and ΔHm are within experimental error and are not thought to be significant.

[3] = Lorentzian peak 1 (1.5 GHz at 30° C.)
[4] = Lorentzian peak 4 (3.1 GHz at 30° C.)
[5] = Lorentzian peak 5 (3.5 GHz at 30° C.)
[6] = Lorentzian peak 7 (4.4 GHz at 30° C.)
[7] = simultaneous UV/VIS and microwave measurements

B1: Bovine pancreatic ribonuclease A (protein, UniProt P61823 27-150, looked up)
Ribonuclease pancreatic: KETAAAKFERQHMDSSTSAASSSNYCNQMMKSRNLTKDRCKPVNTFVHESLADVQAVCSQKNVACKNGQTNCYQSYSTMSITDCRETGSSKYPNCAYKTTQANKHIIVACEGNPYVPVHFDASV
notes: Bovine pancreatic ribonuclease A purchased from Sigma, used without further purification
[1]; [3]
  Tm: 50.4 °C
  ΔHm: 66.0 kcal/mol
[1]; [4]
  Tm: 58.3 °C
  ΔHm: 161.4 kcal/mol
[1]; [5]
  Tm: 53.3 °C
  ΔHm: 72.1 kcal/mol
[1]; [6]
  Tm: 60.9 °C
  ΔHm: 76.8 kcal/mol
[1]; fit to all peaks (1, 4, 5, 7)
  Tm: 55.21 °C
  ΔHm: 54.2 kcal/mol
[2]; UV/VIS alone
  Tm: 58.09 °C
  ΔHm: 76.8 kcal/mol
[2]; average, UV/VIS absorbance 288 nm, 30 mM sodium acetate/acetic acid, 100 mM NaCl, pH 4.5
  average Tm (midpoint temperature of unfolding): 58.2 °C
[2]; average, UV/VIS absorbance 288 nm, pH 4.5 buffer
  average ΔHm (enthalpy at midpoint temperature): 74.9 kcal/mol
[2]; [7]
  Tm: 58.91 °C
  ΔHm: 65.1 kcal/mol
